Test results published in paper PMC2584968.

Target: three-disulphide variant of core gp120 (HXBc2) (HIV-1 (HXBc2))
Test: SPR

## CD4-induced antibody 17b
  fold increase in on-rate (through stabilization): 95 fold
